Measured values taken from the supplement of paper PMC7125110.
± gives the standard error. For some of these results: This sample holds only a part of the variants without activity.

B1: glmS ribozyme (parent)
chain: AUAAAAGCGCCAGAACUACAGAAAUGUAGUUGACGAGGAGGAGGUUUAUCGAAUUUUCGGCGGAUGCCUCCAAA

How the values were obtained:
Conditions in all cases: with glucosamine-6-phosphate
glucosamine-6-phosphate [1] = variants of: B1; assay: kcat; higher = faster cleavage; RNA array
In short: (§1)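 Barcoded glmS ribozyme variants on sequenced MiSeq chips were transcribed in situ by E. coli RNA polymerase and tracked through a hybridised Cy3 probe at 37 °C. Glucosamine-6-phosphate (40 μM to 10 mM) in HEPES/KCl/Mg(OAc)2 buffer was flowed in, and tiles were imaged over ~14 h. Signals were normalised to baseline and to non-cleaving reference variants; per-tile medians were fit to one- or two-exponential decays to give kobs. kcat and KM came from weighted Michaelis–Menten fits across concentrations.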

glucosamine-6-phosphate [2] = variants of: B1; assay: self-cleavage kobs at 40 uM GlcN6P; higher = faster cleavage; RNA array
In short: as §1

glucosamine-6-phosphate [3] = variants of: B1; assay: self-cleavage kobs at 160 uM GlcN6P; higher = faster cleavage; RNA array
In short: as §1

glucosamine-6-phosphate [4] = variants of: B1; assay: self-cleavage kobs at 640 uM GlcN6P; higher = faster cleavage; RNA array
In short: as §1

glucosamine-6-phosphate [5] = variants of: B1; assay: self-cleavage kobs at 2500 uM GlcN6P; higher = faster cleavage; RNA array
In short: as §1

glucosamine-6-phosphate [6] = variants of: B1; assay: self-cleavage kobs at 10000 uM GlcN6P; higher = faster cleavage; RNA array
In short: as §1

glucosamine-6-phosphate [7] = variants of: B1; assay: KM; higher = weaker cofactor use; RNA array
In short: as §1

Row | Variant | kcat (glucosamine-6-phosphate [1]) [s⁻¹] | self-cleavage kobs at 40 uM GlcN6P (glucosamine-6-phosphate [2]) [s⁻¹] | self-cleavage kobs at 160 uM GlcN6P (glucosamine-6-phosphate [3]) [s⁻¹] | self-cleavage kobs at 640 uM GlcN6P (glucosamine-6-phosphate [4]) [s⁻¹] | self-cleavage kobs at 2500 uM GlcN6P (glucosamine-6-phosphate [5]) [s⁻¹] | self-cleavage kobs at 10000 uM GlcN6P (glucosamine-6-phosphate [6]) [s⁻¹] | KM (glucosamine-6-phosphate [7]) [µM]
1 | A12C C67G | 0.00173 ± 0.00067 | 6.89e-05 ± 6e-06 | 0.000199 ± 2.4e-05 | 0.000444 ± 5.8e-05 | 0.00106 ± 0.00012 | 0.00265 ± 0.00032 | –
2 | C11U U54A | 0.00189 ± 0.00049 | 8.46e-05 ± 1.3e-05 | 0.000164 ± 3.1e-05 | 0.000876 ± 0.00016 | 0.00164 ± 0.00021 | 0.00149 ± 0.00021 | 1150 ± 470
3 | C11A G29U | 3.97e-05 ± 4.4e-06 | – | – | – | 3.72e-05 ± 1.1e-05 | 3.56e-05 ± 8.9e-06 | –
4 | C11A A12G | 0.000158 ± 1.7e-05 | – | – | 2.43e-05 ± 1.1e-05 | 8.06e-05 ± 2.3e-05 | 0.000119 ± 2.5e-05 | 3020 ± 720
5 | G9U U31C | < 1e-05 | – | – | < 1e-05 | – | < 1e-05 | –
6 | C10G G59A | < 1e-05 | < 1e-05 | < 1e-05 | – | – | – | –
7 | C11U G66U | 4.89e-05 ± 2.1e-05 | < 1e-05 | – | – | 6.45e-05 ± 1e-05 | 2.69e-05 ± 1.2e-05 | –
8 | A12C G41A | 0.00163 ± 0.00065 | 7.57e-05 ± 9.1e-06 | 0.000107 ± 1.7e-05 | 0.000353 ± 3.5e-05 | 0.00105 ± 0.00012 | 0.00136 ± 0.00017 | –
9 | C10A U31G | < 1e-05 | – | – | < 1e-05 | < 1e-05 | – | –
10 | C10G G37U | < 1e-05 | – | – | – | – | – | –
11 | C10G C67A | 2.45e-05 ± 7.2e-06 | – | – | – | – | – | –
12 | C10U G38U | < 1e-05 | – | – | – | – | – | –
13 | A12C C34A | < 1e-05 | < 1e-05 | < 1e-05 | < 1e-05 | < 1e-05 | – | –
14 | A12C U45A | 0.0415 ± 0.0022 | 0.000958 ± 0.00019 | 0.00352 ± 0.00099 | 0.0118 ± 0.003 | 0.0233 ± 0.0073 | 0.037 ± 0.013 | 1690 ± 110
15 | C11A U56C | 2.55e-05 ± 1e-05 | < 1e-05 | < 1e-05 | – | 4.6e-05 ± 2.2e-05 | – | –
16 | C11A U56A | 0.000143 ± 1.9e-06 | – | – | 3.27e-05 ± 1e-05 | 7.89e-05 ± 1.5e-05 | 0.000118 ± 1.3e-05 | 2090 ± 78
17 | C11U A53C | 0.000605 ± 0.00015 | – | 3.37e-05 ± 1.3e-05 | 8.09e-05 ± 1e-05 | 0.000307 ± 4.8e-05 | 0.000412 ± 6.8e-05 | 3780 ± 1300
